Laboratory results from the Human Domainome abundance scans (Beltran et al. 2025).
± gives the uncertainty stated by the source.

B1: POU domain, class 6, transcription factor 2, residues 609 to 663; numbered along this chain, P78424 (parent)
chain: KRRTSFTPQALEILNAHFEKNTHPSGQEMTEIAEKLNYDREVVRVWFCNKRQALK
B2: Homeobox protein cut-like 2, residues 895 to 963; numbered along this chain, O14529 (parent)
chain: EVDTLELTRQVKEKLAKNGICQRIFGEKVLGLSQGSVSDMLSRPKPWSKLTQKGREPFIRMQLWLSDQL

Variants of: B1
Assay: abundance fitness (aPCA) (normalised: wild type 0, dead -1); higher = more abundant; growth selection in yeast, the domain comes from the species named
Settings: Homo sapiens

Variant | abundance fitness
K50L | -0.834 ± 0.11
K50P | -1.19 ± 0.36
K50H | -0.444 ± 0.29
K50M | -0.184 ± 0.17
E19L | -0.057 ± 0.077
E19S | 0.073 ± 0.072
E19M | -0.013 ± 0.11
Y38T | 0.072 ± 0.07
Y38P | -1.08 ± 0.14
Y38R | -0.024 ± 0.05
Y38I | 0.027 ± 0.13
Y38W | -0.071 ± 0.059
Y38A | 0.02 ± 0.046
Y38N | -0.405 ± 0.17
R3I | 0.136 ± 0.12
R3P | 0.004 ± 0.1
R3L | 0.057 ± 0.073
R3F | 0.053 ± 0.11
E34G | -0.347 ± 0.18
E34Q | -0.194 ± 0.18
E34T | -0.012 ± 0.32
F6L | 0.135 ± 0.076

Variant | abundance fitness
F6M | -0.042 ± 0.12
F6R | -0.423 ± 0.076
F6C | -0.15 ± 0.09
F6A | -0.354 ± 0.092
F6Q | -0.28 ± 0.14
A10E | 0.062 ± 0.14
A10L | -0.51 ± 0.13
A10K | -0.587 ± 0.33
A10Q | -0.107 ± 0.17
A10V | -0.227 ± 0.13
A10D | -0.015 ± 0.15
Q52M | -0.188 ± 0.12
Q52N | 0.014 ± 0.17
Q52V | -0.161 ± 0.094
Q52Y | -0.339 ± 0.15
Q52H | 0.022 ± 0.14
K1D | -0.161 ± 0.15
K1N | 0.043 ± 0.14
K1T | -0.077 ± 0.19
K1V | -0.776 ± 0.3
K1E | -0.632 ± 0.22
E31L | -0.288 ± 0.17

Variant | abundance fitness
E31M | 0.061 ± 0.19
E31V | -0.174 ± 0.12
E31K | -0.31 ± 0.23
E31T | -0.112 ± 0.33
E31W | -0.131 ± 0.18
E31Y | -0.499 ± 0.26
T30I | -0.088 ± 0.22
T30M | 0.102 ± 0.28
T30N | -0.177 ± 0.4
R44F | -0.117 ± 0.1
R44W | 0.037 ± 0.078
R44E | 0.027 ± 0.1
R44D | -0.179 ± 0.12
I32L | -0.154 ± 0.17
I32V | -0.27 ± 0.14
I32N | -0.838 ± 0.23
I32M | -0.246 ± 0.28
I32G | -0.705 ± 0.21
I32D | -1.16 ± 0.39
I32A | -0.679 ± 0.45
N49G | -0.13 ± 0.11
N49F | -0.292 ± 0.19

Variant | abundance fitness
N49A | -0.038 ± 0.14
N49D | -0.152 ± 0.16
N49P | -0.683 ± 0.25
N49H | -0.18 ± 0.2
P8D | 0.038 ± 0.14
P8N | -0.072 ± 0.29
P8I | -0.189 ± 0.24
P8L | -0.057 ± 0.11
P8W | -0.394 ± 0.13
P8T | 0.477 ± 0.48
N21A | -0.198 ± 0.08
N21T | -0.173 ± 0.1
N21M | -0.421 ± 0.14
N21H | -0.182 ± 0.1
N21R | -0.274 ± 0.064
N21L | -0.551 ± 0.071
N21F | -0.659 ± 0.12
T22I | -0.103 ± 0.11
T22Y | -0.201 ± 0.13
T22A | 0.006 ± 0.092
T22S | 0.003 ± 0.073
T22L | -0.017 ± 0.077

Variant | abundance fitness
D39Q | -0.152 ± 0.078
D39T | -0.002 ± 0.058
D39C | -0.093 ± 0.085
D39I | -0.597 ± 0.079
D39G | -0.146 ± 0.059
D39R | -0.131 ± 0.053
D39W | -0.54 ± 0.094
D39V | -0.418 ± 0.061
W46I | -0.828 ± 0.41
W46R | -0.753 ± 0.1
R51H | -0.385 ± 0.18
R51P | -0.636 ± 0.15
R51Y | -0.097 ± 0.13
R51E | -0.337 ± 0.15
V43T | -0.579 ± 0.1
V43K | -1.17 ± 0.24
V43Y | -0.908 ± 0.33
V43H | -1.04 ± 0.41
S5C | -0.039 ± 0.084
S5M | -0.127 ± 0.1
S5D | -0.063 ± 0.097
S5G | 0.041 ± 0.055

Variant | abundance fitness
S5F | -0.031 ± 0.13
S5A | 0.019 ± 0.093
S5H | -0.245 ± 0.13
S5R | -0.113 ± 0.058
A33W | -1.01 ± 0.34
A33S | -0.118 ± 0.46
A33R | -0.809 ± 0.27
H23I | -0.169 ± 0.2
H23F | -0.096 ± 0.14
H23C | 0.018 ± 0.089
H23N | -0.027 ± 0.16
H23S | 0.036 ± 0.12
E41A | -0.218 ± 0.066
E41Y | -0.321 ± 0.15
E41I | -0.504 ± 0.18
E41R | -0.107 ± 0.067
E41M | -0.42 ± 0.12
E41D | -0.104 ± 0.14
E41N | -0.185 ± 0.23
I13C | -0.113 ± 0.18
I13P | -0.98 ± 0.31
I13M | -0.218 ± 0.12

Variants of: B2
Assay: as above
Settings: Homo sapiens

Variant | abundance fitness
L69Y | -0.096 ± 0.098
L69H | -0.182 ± 0.17
L69I | -0.221 ± 0.11
L69K | -0.041 ± 0.064
L69Q | -0.092 ± 0.074
L69N | -0.058 ± 0.13
L69C | -0.054 ± 0.059
L69P | -0.163 ± 0.057
L69S | -0.052 ± 0.043
L69A | -0.164 ± 0.07
L69D | -0.188 ± 0.18
L69R | -0.08 ± 0.04
L69T | -0.199 ± 0.059
L69G | -0.056 ± 0.045
L69W | -0.137 ± 0.044
L69F | -0.083 ± 0.054
L69E | -0.068 ± 0.064
L69M | -0.007 ± 0.049

Variant | abundance fitness
Q68I | -0.142 ± 0.047
Q68G | -0.13 ± 0.03
Q68K | 0.062 ± 0.041
Q68Y | -0.105 ± 0.044
Q68V | -0.072 ± 0.029
Q68R | -0.057 ± 0.044
Q68W | -0.087 ± 0.037
Q68L | -0.052 ± 0.03
Q68N | -0.068 ± 0.05
Q68F | -0.099 ± 0.036
Q68S | -0.097 ± 0.061
Q68E | -0.014 ± 0.039
Q68M | -0.022 ± 0.034
D67W | -0.661 ± 0.1
D67S | -0.082 ± 0.042
D67Y | -0.321 ± 0.065
D67V | -0.549 ± 0.088
